One block for each binder: values may come before it.
Experiments:
[1] = target: T1, DDB1 and CUL4 associated factor 4-like 2 (DCAF4L2); peptide DCAF4L2-001 peptide on HLA-A*02:01 (human); assay: multimer staining
T1 peptide: ILQDGQFLV

[2] = target: T2, GSTA4-001 (peptide code; source protein not spelled out) peptide on HLA-A*02:01 (human); assay: cytokine release
T2 peptide: KLQDGNHLL

[3] = target: T3, MUC-009 (peptide code; source protein not spelled out) peptide on HLA-A*02:01 (human); assay: cytokine release
T3 peptide: ILQEGTFKA

[4] = target: T4, WRN-002 (peptide code; source protein not spelled out) peptide on HLA-A*02:01 (human); assay: cytokine release
T4 peptide: ILQDLQPFL

[5] = target: T5, SNR-004 (peptide code; source protein not spelled out) peptide on HLA-A*02:01 (human); assay: cytokine release
T5 peptide: ILQDGRIFI

[6] = target: T6, GRB14-002 (peptide code; source protein not spelled out) peptide on HLA-A*02:01 (human); assay: cytokine release
T6 peptide: GLVDGVFLV

[7] = target: T7, VPS51-001 (peptide code; source protein not spelled out) peptide on HLA-A*02:01 (human); assay: cytokine release
T7 peptide: TLTDEQFLV

[8] = target: T8, AHR-002 (peptide code; source protein not spelled out) peptide on HLA-A*02:01 (human); assay: cytokine release
T8 peptide: NLQEGEFLL

[9] = target: T9, PFN1-001 (peptide code; source protein not spelled out) peptide on HLA-A*02:01 (human); assay: cytokine release
T9 peptide: LLQDGEFSM

[10] = target: T10, KCM-001 (peptide code; source protein not spelled out) peptide on HLA-A*02:01 (human); assay: cytokine release
T10 peptide: TLQNSQFLL

[11] = target: T11, VPS39-001 (peptide code; source protein not spelled out) peptide on HLA-A*02:01 (human); assay: cytokine release
T11 peptide: LLQDKQFEL

- binding result [1]: recognises
- binding result [2]: no recognition
- binding result [3]: no recognition
- binding result [4]: no recognition
- binding result [5]: no recognition
- binding result [6]: no recognition
- binding result [7]: no recognition
- binding result [8]: no recognition
- binding result [9]: no recognition
- binding result [10]: no recognition
- binding result [11]: no recognition
B1: R52P2G11 (TCR, V domains shown)
Valpha: KNQVEQSPQSLIILEGKNCTLQCNYTVSPFSNLRWYKQDTGRGPVSLTIMTFSENTKSNGRYTATLDADTKQSSLHITASQLSDSASYICVVSAYGKLQFGAGTQVVVTP
Vbeta: DAGVIQSPRHEVTEMGQEVTLRCKPISGHNSLFWYRQTMMRGLELLIYFNNNVPIDDSGMPEDRFSAKMPNASFSTLKIQPSEPRDSAVYFCASSLGSPDGNQPQHFGDGTRLSIL

- binding result [1]: recognises
- binding result [2]: no recognition
- binding result [3]: no recognition
- binding result [4]: no recognition
- binding result [5]: no recognition
- binding result [6]: no recognition
- binding result [7]: no recognition
- binding result [8]: no recognition
- binding result [9]: no recognition
- binding result [10]: no recognition
- binding result [11]: no recognition
B2: R53P2A9 (TCR, V domains shown)
Valpha: AQTVTQSQPEMSVQEAETVTLSCTYDTSESDYYLFWYKQPPSRQMILVIRQEAYKQQNATENRFSVNFQKAAKSFSLKISDSQLGDAAMYFCAYNSYAGGTSYGKLTFGQGTILTVHP
Vbeta: DAGVTQSPTHLIKTRGQQVTLRCSPISGHKSVSWYQQVLGQGPQFIFQYYEKEERGRGNFPDRFSARQFPNYSSELNVNALLLGDSALYLCASSLDGTSEQYFGPGTRLTVT

- binding result [1]: recognises
- binding result [2]: no recognition
- binding result [3]: no recognition
- binding result [4]: no recognition
- binding result [5]: no recognition
- binding result [6]: no recognition
- binding result [7]: no recognition
- binding result [8]: no recognition
- binding result [9]: no recognition
- binding result [10]: no recognition
- binding result [11]: no recognition
B3: R36P3F9 (TCR, V domains shown)
Valpha: SQQGEEDPQALSIQEGENATMNCSYKTSINNLQWYRQNSGRGLVHLILIRSNEREKHSGRLRVTLDTSKKSSSLLITASRAADTASYFCATVSNYQLIWGAGTKLIIKP
Vbeta: EAQVTQNPRYLITVTGKKLTVTCSQNMNHEYMSWYRQDPGLGLRQIYYSMNVEVTDKGDVPEGYKVSRKEKRNFPLILESPSPNQTSLYFCASSSTSGGLSGETQYFGPGTRLLVL

From US20180306789A1 (published 2018)
